Experimental data published in patent publication US20210371505A1 (Regeneron, published 2021).

Experiments:
Assay in all cases: cell-based or functional assay
[1] = target: T1, Hemagglutinin of influenza virus A/Aichi/02/1968-PR8-X31 (H3N2) (Influenza A virus …, UniProt P03437 17-566)
[2] = target: T1, Hemagglutinin of influenza virus …; remark: listed apart in the source
[3] = target: Hemagglutinin of influenza virus A/Philippines/01/1982 (H3N2) (Influenza A virus A/Philippines/01/1982 …)
[4] = target: Hemagglutinin of influenza virus A/Shanghai/01/2013-PR8 (H7N9) (Influenza A virus …)

B1: H1H14611N2 (antibody, V domains shown)
VH: EVQLVESGGGLVKPGGSLRLSCAASGFTFSGFSMNWVRQVPGKGLEWVSSISTSGNYMYYADSVKGRFTISRDNAKKSFSLQMNSLRAEDSAIYYCARGGGYNWNLFDYWGQGSLVTVSS
VL: EIVLTQSPGTLSLSPGERATLSCRASQSLNSNYLAWYQQKPGQAPRLLIYGASSRATGIPDRFSGSGSGTDFTLTITRLESEDFAVYYCQQYGNSPLTFGGGTKVEIK
EC50, complement-dependent cytotoxicity of virus-infected MDCK cells [1]: 140 nM
IC50 of neutralization, cell viability microneutralization assay on MDCK cells [2]: 7.83 nM
IC50 of neutralization, cell viability microneutralization assay on MDCK cells [3]: 68.4 nM
IC50 of neutralization, cell viability microneutralization assay on MDCK cells [4]: 405 nM
